These results are taken from publication PMC9404457 (Nature, 2022).

For the assay, the target named is T1, human FLAG-tagged PORCN (isoform B) (Homo sapiens, PORCN isoform B (Q9H237-2), strain).
T1 chain: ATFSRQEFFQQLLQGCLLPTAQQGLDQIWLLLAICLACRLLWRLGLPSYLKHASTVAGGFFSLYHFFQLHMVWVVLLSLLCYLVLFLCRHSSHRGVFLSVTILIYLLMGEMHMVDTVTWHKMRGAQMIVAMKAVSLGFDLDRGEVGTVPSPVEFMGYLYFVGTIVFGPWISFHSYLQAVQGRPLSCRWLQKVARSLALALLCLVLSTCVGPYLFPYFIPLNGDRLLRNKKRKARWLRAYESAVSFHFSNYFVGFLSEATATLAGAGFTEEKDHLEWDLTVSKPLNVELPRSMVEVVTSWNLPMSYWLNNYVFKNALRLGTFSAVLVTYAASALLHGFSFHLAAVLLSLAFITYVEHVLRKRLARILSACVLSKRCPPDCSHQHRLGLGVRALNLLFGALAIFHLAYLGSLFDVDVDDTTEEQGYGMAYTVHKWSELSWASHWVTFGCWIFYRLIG
Kind of assay: SEC. (In general: Size exclusion chromatography separates by hydrodynamic size, large species first.)

B1: Fab^2C11 (Fab, V domains shown)
VH: EIQLQQSGAELVKPGASVKMSCKVSGYSFTGYNMNWVKQSHGKSLEWIGNINPYYVSTNYNQKFTGKATFTVDRSSSTAYMQLDSLTSEDSAVYYCARSYGSSHTFAYWGQGTLVTVSS
VL: DIHMTQSPASLSAFVGETVTITCRTSENIFSYLAWYQQKQGKSPQLLVYNAKTLTSGVPSRFSGSGSGTQFSLKINSLQPEDFGSYYCQHHYGSPYTFGGGTKLEIK
In the case of B1, the binding result is on record as “binds”.
